Test results published in PMC11473482, “Highly efficient synthesis of the chiral ACE inhibitor intermediate (R)-2-hydroxy-4-phenylbutyrate ethyl ester via engineered bi-enzyme coupled systems” (Bioresources and Bioprocessing, 2024).

Experiments:
[1] = test system: T1, GDH-L-CpCR; experiment: NADPH depletion at […] nm; assay type: biochemical; settings: 100 mM phosphate pH 7.0, NADPH co-substrate, fused GDH; substrate of Km not given, OPBE by the assay
T1 construct: fusion: GDH N-terminal, (GGGGS)2 linker, CpCR C-terminal; pETDuet-1, E. coli BL21(DE3); with Glucose 1-dehydrogenase

[2] = test system: T2, CpCR-L-GDH; experiment: NADPH depletion at […] nm; assay type: biochemical; settings: 100 mM phosphate pH 7.0, NADPH co-substrate, fused GDH; substrate of Km not given, OPBE by the assay
T2 construct: fusion: CpCR N-terminal, (GGGGS)2 linker, GDH C-terminal; about 69 kDa; pETDuet-1, E. coli BL21(DE3); with Glucose 1-dehydrogenase

[3] = substrate: CCOC(=O)C(=O)CCc1ccccc1; experiment: purified protein; assay type: biochemical, Lodderomyces parapsilosis; settings: 100 mM phosphate pH 7.0, NADPH co-substrate, enzyme from pETDuet-1 strain, substrate of Km not given, OPBE by the assay

Row | Molecule | Km [1] [mM] | Km [2] [mM] | Km [3] [mM] | kcat [3] [s⁻¹] | kcat/Km [3] [M⁻¹ s⁻¹]
1 | CCOC(=O)C(=O)CCc1ccccc1 [OPBE] | 16.5 | 18.9 | – | – | –
2 | CpCR (Lodderomyces parapsilosis) (protein, full-length ORF, 368 residues, about 41 kDa; His-tagged, expressed from pETDuet-1 in E. coli BL21(DE3), Ni-NTA purified) MTKAVPDKFQGFAVSDPKNWNRPKLASYERKQINPHDVVLKNEVCGLCYSDIHTLSAGWQPLQRDNLVVGHEIIGEVIAVGDEVTEFKVGDRVGIGAASSSCRSCQRCDSDNEQYCKQGAATYNSKDVRSNNYVTQGGYSSHSIADEKFVFAIPEDLPSSYGAPLMCAGITVFSPLIRNLGLDARGKNVGIIGIGGLGHLALQFANAMGANVTAFSRSSSKKEQAMKLGAHDFVATGEDKTWYKNYDDHFDFILNCASGIDGLNLSEYLSTLKVDKKFVSVGLPPSEDKFEVSPFTFLQQGASFGSSLLGSKTEVKEMLNLAAKHNVRPMIEEVPISEENCAKALDRCHAGDVRYRFVFTDFDKAFKA | – | – | 19.32 | 1.77 | 91
